These are literature values, as cited in article PMC6769993, “Immunomodulatory Functions of the Human Cathelicidin LL-37 (aa 13–31)-Derived Peptides are Associated with Predicted α-Helical Propensity and Hydrophobic Index” (Biomolecules, 2019).

The text on this series:
The minimum region of LL-37 required for its immunomodulatory functions is an internal sequence from amino acids 13–31 [13], known as peptide IG-19. […] IG-19 suppresses inflammatory cytokine production by engaging various signaling intermediates in the presence of bacterial endotoxin or cytokine IL-32 [10, 13, 14]. Both LL-37 and IG-19 also share structural similarities; these are both α-helical amphipathic peptides with net positive charges of +6 and +5, respectively. Previous s ...

As for “LL-37: the only human cathelicidin cationic host defense peptide, 37 amino acids”, the Net positive charge entry is recorded as “+6”.
